Assay results published in paper PMC3260246 (PLoS ONE, 2012).
Changes are numbered by the printed parent chain. Names and notes keep the numbering of the source.

B1: αA-crystallin R12A mutant (natural protein, human, UniProt P02489 1-173, looked up)
chain: MDVTIQHPWFKATLGPFYPSRLFDQFFGEGLFEYDLLPFLSSTISPYYRQSLFRTVLDSGISEVRSDRDKFVIFLDVKHFSPEDLTVKVQDDFVEIHGKHNERQDDHGYISREFHRRYRLPSNVDQSALSCSLSADGMLTFCGPKIQTGLDATHAERAIPVSREEKPTSAPSS
B2: wild-type human αB-crystallin (natural protein, UniProt P02511 1-175, looked up)
chain: MDIAIHHPWIRRPFFPFHSPSRLFDQFFGEHLLESDLFPTSTSLSPFYLRPPSFLRAPSWFDTGLSEMRLEKDRFSVNLDVKHFSPEELKVKVLGDVIEVHGKHEERQDEHGFISREFHRKYRIPADVDPLTITSSLSSDGVLTVNGPRKQVSGPERTIPITREEKPAVTAAPKK
notes: αB-crystallin, human; The reverse primer carries no stop codon; Large oligomer (molar mass about 4.8e5 g/mol by light scattering); also called αBWt; Wt αB-crystallin; source: E. coli BL21(DE3), purified (gel filtration, ion-exchange chromatography)
B3: αB-crystallin R12A mutant (natural protein, human, UniProt P02511 1-175, looked up)
chain: B2 chain with R12A
notes: αB-crystallin, human, R12A made by site-directed mutagenesis on the Wt cDNA in pET23a; Same construct as m3 with R12A; also called αB_(R12A); source: E. coli BL21(DE3), purified (gel filtration, ion-exchange chromatography)

Molecular target: the molecule itself
Test: multi-angle light scattering; molar mass and hydrodynamic radius of wild-type and R12A proteins, ASTRA 5.3.4; conditions as in refs 32, 58

Protein | binding result
B1 | binds
B2 | binds
B3 | binds
